Here are results for 1 molecule from article PMC4537050, “A long pentraxin-3-derived pentapeptide for the therapy of FGF8b-driven steroid hormone-regulated cancers” (Oncotarget, 2015).

Test [1] has as its target Human recombinant FGF8b (fibroblast growth factor-8b) (human).
Test [2] has the same target. Description: SPR; BIAcore X-100; FGF8b (20 μg/ml in 10 mM sodium acetate, pH 6.0) or other FGFs (10 mM sodium acetate at optimal pH) immobilised on a CM5 sensor chip by EDC/NHS; peptide injected (ARPCA 8 μM to 2000 μM), 4 min at 30 μl/min, 10 min dissociation, in HBS; equilibrium values fitted with the Langmuir equation for monovalent binding.
Test [3] concerns the target FGF2 (UniProt P09038). The description is as above.
Test [4] has as its target FGF1 (UniProt P05230). Described as above.

Broadly, the Kd is the equilibrium constant for the complex coming apart.

Consider Ac-ARPCA-NH2 [Ac-ARPCA-NH2, acetylated pentapeptide corresponding to PTX3(100-104)], for which the inhibition of HUVEC proliferation in response to 30 ng/ml FGF8b (viable cell counts at 48 h) in test [1] stood at 30 µM. The Kd in test [2] came out at 278 µM; in test [3], 1700 µM; in test [4], 227 µM.
